What was measured:
[1] = biological target: T1, His6-Trs31 (recombinant) (yeast, UniProt Q03337 1-283); test: co-purification of co-expressed subunits
T1 sequence (looked up): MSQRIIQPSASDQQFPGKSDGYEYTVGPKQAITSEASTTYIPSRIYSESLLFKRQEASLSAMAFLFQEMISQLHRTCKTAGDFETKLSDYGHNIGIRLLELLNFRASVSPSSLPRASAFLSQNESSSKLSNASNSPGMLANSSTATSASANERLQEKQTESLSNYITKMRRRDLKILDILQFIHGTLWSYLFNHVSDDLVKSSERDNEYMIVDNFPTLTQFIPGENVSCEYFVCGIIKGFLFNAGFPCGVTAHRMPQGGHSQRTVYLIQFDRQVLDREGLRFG

[2] = biological target: T2, Trs130-TAP (recombinant) (yeast, UniProt Q03660 1-1102); test: co-purification of co-expressed subunits
T2 sequence (looked up): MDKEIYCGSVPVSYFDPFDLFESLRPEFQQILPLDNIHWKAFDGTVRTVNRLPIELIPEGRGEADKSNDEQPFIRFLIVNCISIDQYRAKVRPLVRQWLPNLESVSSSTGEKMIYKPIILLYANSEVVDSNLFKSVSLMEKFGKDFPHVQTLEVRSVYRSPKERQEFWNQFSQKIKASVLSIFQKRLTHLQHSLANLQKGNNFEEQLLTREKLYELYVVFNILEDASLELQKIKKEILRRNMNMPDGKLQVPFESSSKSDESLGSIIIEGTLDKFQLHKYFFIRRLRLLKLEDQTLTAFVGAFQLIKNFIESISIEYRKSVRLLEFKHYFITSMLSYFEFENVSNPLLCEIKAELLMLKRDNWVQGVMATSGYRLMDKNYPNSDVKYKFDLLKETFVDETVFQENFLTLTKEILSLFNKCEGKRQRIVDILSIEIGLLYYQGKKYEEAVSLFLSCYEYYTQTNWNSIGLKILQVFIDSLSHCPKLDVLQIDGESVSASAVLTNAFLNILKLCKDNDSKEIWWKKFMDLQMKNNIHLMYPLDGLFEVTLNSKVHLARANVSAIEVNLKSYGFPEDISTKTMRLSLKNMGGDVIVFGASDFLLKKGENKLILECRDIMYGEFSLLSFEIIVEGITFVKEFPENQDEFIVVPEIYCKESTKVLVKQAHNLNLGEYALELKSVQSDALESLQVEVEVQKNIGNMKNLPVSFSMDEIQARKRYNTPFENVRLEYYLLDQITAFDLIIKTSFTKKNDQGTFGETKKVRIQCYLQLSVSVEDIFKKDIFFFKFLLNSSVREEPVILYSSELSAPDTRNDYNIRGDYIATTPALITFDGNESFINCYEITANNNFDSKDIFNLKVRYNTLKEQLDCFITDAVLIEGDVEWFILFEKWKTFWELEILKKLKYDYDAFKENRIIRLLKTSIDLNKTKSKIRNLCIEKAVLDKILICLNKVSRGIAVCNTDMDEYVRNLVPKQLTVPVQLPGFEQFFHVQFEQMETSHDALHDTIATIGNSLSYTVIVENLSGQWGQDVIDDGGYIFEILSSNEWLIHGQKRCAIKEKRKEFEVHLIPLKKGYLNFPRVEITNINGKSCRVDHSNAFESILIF

B1: Bet3 (recombinant) (natural protein, yeast, UniProt P36149 1-193, looked up)
chain: MVSTTQSRSLKAMGEEIWKNKTEKINTELFTLTYGSIVAQLCQDYERDFNKVNDHLYSMGYNIGCRLIEDFLARTALPRCENLVKTSEVLSKCAFKIFLNITPNITNWSHNKDTFSLILDENPLADFVELPMDAMKSLWYSNILCGVLKGSLEMVQLDCDVWFVSDILRGDSQTEIKVKLNRILKDEIPIGED
[1]
  stoichiometry N: 2
[2]
  stoichiometry N: 2
